From US20220017608A1 (Teva, published 2022)
Values belong to the binder of their own block, whether it stands above or below them. Where no end group is shown, it is not given here. The star is where a group is joined. Biotin = O=C1N[C@H]2[C@H](CS[C@H]2CCCCC(=O)*)N1

How the values were obtained:
human α-CGRP [1] = molecular target: T1, human α-CGRP (human, C-terminal amide (CONH2); N-biotinylated when captured on the Biacore chip); assay: competition binding assay on SK-N-MC cells: antibody blocks binding of human α-CGRP to the CGRP1 receptor; value in binding sites
T1 construct: N-biotinylated in the Biacore assays; also called α-Hu; α-human
T1 peptide: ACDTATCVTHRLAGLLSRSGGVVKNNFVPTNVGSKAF

rat α-CGRP [2] = molecular target: T2, rat α-CGRP (rat, not fully specified; C-terminal amide (CONH2); N-biotinylated when captured on the Biacore chip); assay: Biacore, N-biotin-CGRP on chip, 25 C
T2 construct: also called α-Rat; α-rat
T2 peptide: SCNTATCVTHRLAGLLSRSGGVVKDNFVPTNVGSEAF

human α-CGRP [3] = molecular target: T1, human α-CGRP; assay: Biacore, N-biotin-CGRP on chip, 25 C
rat β-CGRP [4] = molecular target: T3, rat β-CGRP (rat, not fully specified; C-terminal amide (CONH2); N-biotinylated when captured on the Biacore chip); assay: Biacore, N-biotin-CGRP on chip, 37 C
T3 construct: also called β-rat
T3 peptide: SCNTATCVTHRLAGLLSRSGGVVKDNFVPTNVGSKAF

human β-CGRP = molecular target: T4, human β-CGRP (human, not fully specified; C-terminal amide (CONH2); N-biotinylated when captured on the Biacore chip); assay: Biacore, N-biotin-CGRP on chip, 37 C
T4 construct: also called β-human
T4 peptide: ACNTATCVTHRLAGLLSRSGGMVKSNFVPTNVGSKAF

rat α-CGRP [5] = molecular target: T2, rat α-CGRP; assay: Biacore, N-biotin-CGRP on chip, 37 C
human α-CGRP [6] = molecular target: T1, human α-CGRP; assay: Biacore, N-biotin-CGRP on chip, 37 C
amylin = molecular target: T5, amylin (Homo sapiens (Human), UniProt P10997 34-70, not fully specified; Natural amylin has a C-terminal Tyr amide and a Cys2-Cys7 disulfide. The patent passages shown say nothing on this.); assay: Biacore solution competition, chip probes free G1
T5 peptide: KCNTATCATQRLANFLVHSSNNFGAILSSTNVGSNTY

calcitonin = molecular target: T6, calcitonin (Homo sapiens (Human), UniProt P01258 85-116, not fully specified; Natural calcitonin has a C-terminal Pro amide and a Cys1-Cys7 disulfide. The patent passages shown say nothing on this.); assay: Biacore solution competition, chip probes free G1
T6 peptide: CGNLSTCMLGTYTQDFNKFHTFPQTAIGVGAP

adrenomedullin = molecular target: T7, adrenomedullin (Homo sapiens (Human), UniProt P35318 95-146, Natural adrenomedullin has a C-terminal Tyr amide and a Cys16-Cys21 disulfide. The patent passages shown say nothing on this.); assay: Biacore solution competition, chip probes free G1
T7 sequence (peptide): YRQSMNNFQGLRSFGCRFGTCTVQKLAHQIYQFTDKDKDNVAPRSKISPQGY

human α-CGRP [7] = molecular target: T1, human α-CGRP; assay: competition binding assay on SK-N-MC cells: antibody blocks binding of human α-CGRP to the CGRP1 receptor; value in IgG molecules
cynomolgus monkey α-CGRP = molecular target: T8, cynomolgus monkey α-CGRP (cynomolgus monkey); assay: Biacore
T8 construct: also called cyno CGRP

rat α-CGRP [8] = molecular target: T2, rat α-CGRP; assay: Biacore, N-biotinylated CGRP captured on chip, 25 C
human α-CGRP [9] = molecular target: T1, human α-CGRP; assay: as above
human α-CGRP [10] = molecular target: T1, human α-CGRP; assay: Biacore, ratio of KD against rat α-CGRP
human α-CGRP [11] = molecular target: T1, human α-CGRP; assay: competition binding assay on SK-N-MC cells: antibody blocks binding of human α-CGRP to the CGRP1 receptor
rat β-CGRP [12] = molecular target: T3, rat β-CGRP; assay: Biacore (legend of Table 1)
human α-CGRP [13] = molecular target: T1, human α-CGRP; assay: blocking of human α-CGRP binding to the CGRP1-receptor in SK-N-MC cells; IC50 converted to binding sites
P29A = molecular target: T9, P29A (ends and bridges not checked); assay: Biacore 3000, 25 °C, alanine scan: N-biotinylated peptide on SA chip, G1 Fab titrated; fold loss versus wild-type 25-37 fragment
T9 construct: also called HuαCGRP fragment 25-37 P29A
T9 peptide: Biotin-NNFVATNVGSKAF
Protocol: (§1) Interaction analysis was conducted at 25° C. on a Biacore 3000™ system equipped with streptavidin-coated (SA) sensor chips (Biacore AB, Uppsala, Sweden) using a standard Biacore running buffer (HBS-P). […] Each amino acid between position 27-37 was then mutated individually to alanine and expressed the fold loss in affinity compared to the wild-type fragment. […] Fab fragments were titrated over the chip using 1 μM as the top concentration of a two-fold dilution series. Association and dissociation phases were monitored at 100 μl/min for 1 minute and 5 minutes respectively. Surfaces were regenerated with a mixture of 35% ethanol+25 mM NaOH+0.5M NaCl.

T30A = molecular target: T10, T30A (ends and bridges not checked); assay: as above
T10 construct: also called HuαCGRP fragment 25-37 T30A
T10 peptide: Biotin-NNFVPANVGSKAF
Protocol: as §1

K35A = molecular target: T11, K35A (ends and bridges not checked); assay: as above
T11 construct: also called HuαCGRP fragment 25-37 K35A
T11 peptide: Biotin-NNFVPTNVGSAAF
Protocol: as §1

F27A = molecular target: T12, F27A (ends and bridges not checked); assay: as above
T12 construct: also called HuαCGRP fragment 25-37 F27A
T12 peptide: Biotin-NNAVPTNVGSKAF
Protocol: as §1

N31A = molecular target: T13, N31A (ends and bridges not checked); assay: as above
T13 construct: also called HuαCGRP fragment 25-37 N31A
T13 peptide: Biotin-NNFVPTAVGSKAF
Protocol: as §1

V32A = molecular target: T14, V32A (ends and bridges not checked); assay: as above
T14 construct: also called HuαCGRP fragment 25-37 V32A
T14 peptide: Biotin-NNFVPTNAGSKAF
Protocol: as §1

V28A = molecular target: T15, V28A (ends and bridges not checked); assay: as above
T15 construct: also called HuαCGRP fragment 25-37 V28A
T15 peptide: Biotin-NNFAPTNVGSKAF
Protocol: as §1

rat β-CGRP [14] = molecular target: T3, rat β-CGRP; assay: Biacore (legend of Table 1), rat β-CGRP

- IC50 (human α-CGRP [1]): 1.8 nM
- Ki (human α-CGRP [1]): 0.74 nM
- Kd (rat α-CGRP [2]): 1.22 nM
- T1/2 (rat α-CGRP [2]): 3.12 h
- koff (rat α-CGRP [2]): 6.18e-05 s⁻¹
- kon (rat α-CGRP [2]): 50800 M⁻¹ s⁻¹
- Kd (human α-CGRP [3]): 0.042 nM
- T1/2 (human α-CGRP [3]): 24.7 h
- koff (human α-CGRP [3]): 7.8e-06 s⁻¹
- kon (human α-CGRP [3]): 186000 M⁻¹ s⁻¹
- Kd (rat β-CGRP [4]): 0.152 nM
- T1/2 (rat β-CGRP [4]): 2.45 h
- koff (rat β-CGRP [4]): 7.85e-05 s⁻¹
- kon (rat β-CGRP [4]): 516000 M⁻¹ s⁻¹
- Kd (human β-CGRP): 0.155 nM
- T1/2 (human β-CGRP): 2.76 h
- koff (human β-CGRP): 6.98e-05 s⁻¹
- kon (human β-CGRP): 451000 M⁻¹ s⁻¹
- Kd (rat α-CGRP [5]): 2.57 nM
- T1/2 (rat α-CGRP [5]): 28.8 min
- koff (rat α-CGRP [5]): 0.000399 s⁻¹
- kon (rat α-CGRP [5]): 155000 M⁻¹ s⁻¹
- Kd (human α-CGRP [6]): 0.063 nM
- T1/2 (human α-CGRP [6]): 5.3 h
- koff (human α-CGRP [6]): 3.63e-05 s⁻¹
- kon (human α-CGRP [6]): 587000 M⁻¹ s⁻¹
- binding result (amylin): no binding (tested: an excess)
- binding result (calcitonin): no binding (tested: an excess)
- binding result (adrenomedullin): no binding (tested: an excess)
- Ki (human α-CGRP [7]): 0.37 nM
- Kd (cynomolgus monkey α-CGRP): 0.063 nM
- Kd (rat α-CGRP [8]): 1.2 nM
- Kd (human α-CGRP [9]): 0.04 nM
- fold more potent affinity than for rat α-CGRP (human α-CGRP [10]): 40 fold
- IC50 (read off the curve) (human α-CGRP [11]): ~0.1 µg/mL
- Kd (rat β-CGRP [12]): 0.1 nM
- IC50 (human α-CGRP [13]): 1.2 nM
B1: antibody G1 (antibody, human IgG2, kappa, V domains shown)
VH: EVQLVESGGGLVQPGGSLRLSCAASGFTFSNYWISWVRQAPGKGLEWVAEIRSESDASATHYAEAVKGRFTISRDNAKNSLYLQMNSLRAEDTAVYYCLAYFDYGLAIQNYWGQGTLVTVSS
VL: EIVLTQSPATLSLSPGERATLSCKASKRVTTYVSWYQQKPGQAPRLLIYGASNRYLGIPARFSGSGSGTDFTLTISSLEPEDFAVYYCSQSYNYPYTFGQGTKLEIKR
notes: Humanized IgG2 delta-a antibody derived from muMAb7E9; also called anti-CGRP antibody G1

- Fold loss in affinity (P29A): 2.8 fold
- Fold loss in affinity (T30A): 1.7 fold
- Fold loss in affinity (K35A): 8.1 fold
- Fold loss in affinity (F27A): 1.4 fold
- Fold loss in affinity (N31A): 1.9 fold
- Fold loss in affinity (V32A): 6.1 fold
- Fold loss in affinity (V28A): 1 fold
B2: Fab fragments of antibody G1 (Fab, V domains shown)
VH: EVQLVESGGGLVQPGGSLRLSCAASGFTFSNYWISWVRQAPGKGLEWVAEIRSESDASATHYAEAVKGRFTISRDNAKNSLYLQMNSLRAEDTAVYYCLAYFDYGLAIQNYWGQGTLVTVSS
VL: EIVLTQSPATLSLSPGERATLSCKASKRVTTYVSWYQQKPGQAPRLLIYGASNRYLGIPARFSGSGSGTDFTLTISSLEPEDFAVYYCSQSYNYPYTFGQGTKLEIK
notes: 'Purified Fab fragments of antibody G1 were generated'; also called G1 Fab

- Kd (rat β-CGRP [14]): 17 nM
- Kd (rat α-CGRP [8]): 1 nM
- Kd (human α-CGRP [9]): 17 nM
- IC50 (human α-CGRP [13]): 37 nM
B3: antibody G2 (antibody, V domains shown)
VH: EVQLQQSGPELVKPGASVKMSCKASGYTFTSSVMHWVKQKPGQGLEWIGYINPYNDGTKYNEKFKGKATLTSDKSSSTAYMELSSLTSEDSAVYYCAKGGNDGYWGQGTTLTVSS
VL: EIVLTQSPTTMAASPGEKITITCSASSSISSIYLHWYQQKPGFSPKVLIYRASNLASGVPARFSGSGSGTSYSLTIGTMEAEDVATYYCQQGSTIPFTFGSGTKLEIKR
notes: Anti-rat CGRP mouse monoclonal antibody (Wong et al. 1993); also called RN4901
